In assay [1] the target is T1, heterodimeric multidrug resistance ABC transporter OmrDE (Omithinimicrobium cerasi strain USBA17B2, UniProt A0A285VW85 1-577; A0A285VWG3 1-661).
T1 sequence (looked up) 1: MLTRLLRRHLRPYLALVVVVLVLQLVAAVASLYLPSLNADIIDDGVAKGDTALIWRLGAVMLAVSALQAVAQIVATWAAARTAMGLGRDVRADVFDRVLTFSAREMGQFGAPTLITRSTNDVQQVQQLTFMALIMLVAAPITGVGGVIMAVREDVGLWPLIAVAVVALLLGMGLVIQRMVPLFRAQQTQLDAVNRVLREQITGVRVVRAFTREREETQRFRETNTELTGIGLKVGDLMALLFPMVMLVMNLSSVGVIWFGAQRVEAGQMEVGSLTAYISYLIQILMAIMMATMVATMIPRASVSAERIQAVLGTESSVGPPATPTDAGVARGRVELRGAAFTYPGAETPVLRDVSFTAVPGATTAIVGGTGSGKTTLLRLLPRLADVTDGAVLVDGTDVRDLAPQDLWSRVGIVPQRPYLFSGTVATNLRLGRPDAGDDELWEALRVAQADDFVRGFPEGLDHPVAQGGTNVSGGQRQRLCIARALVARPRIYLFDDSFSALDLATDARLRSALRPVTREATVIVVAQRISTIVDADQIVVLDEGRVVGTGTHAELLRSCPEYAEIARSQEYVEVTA
T1 sequence (looked up) 2: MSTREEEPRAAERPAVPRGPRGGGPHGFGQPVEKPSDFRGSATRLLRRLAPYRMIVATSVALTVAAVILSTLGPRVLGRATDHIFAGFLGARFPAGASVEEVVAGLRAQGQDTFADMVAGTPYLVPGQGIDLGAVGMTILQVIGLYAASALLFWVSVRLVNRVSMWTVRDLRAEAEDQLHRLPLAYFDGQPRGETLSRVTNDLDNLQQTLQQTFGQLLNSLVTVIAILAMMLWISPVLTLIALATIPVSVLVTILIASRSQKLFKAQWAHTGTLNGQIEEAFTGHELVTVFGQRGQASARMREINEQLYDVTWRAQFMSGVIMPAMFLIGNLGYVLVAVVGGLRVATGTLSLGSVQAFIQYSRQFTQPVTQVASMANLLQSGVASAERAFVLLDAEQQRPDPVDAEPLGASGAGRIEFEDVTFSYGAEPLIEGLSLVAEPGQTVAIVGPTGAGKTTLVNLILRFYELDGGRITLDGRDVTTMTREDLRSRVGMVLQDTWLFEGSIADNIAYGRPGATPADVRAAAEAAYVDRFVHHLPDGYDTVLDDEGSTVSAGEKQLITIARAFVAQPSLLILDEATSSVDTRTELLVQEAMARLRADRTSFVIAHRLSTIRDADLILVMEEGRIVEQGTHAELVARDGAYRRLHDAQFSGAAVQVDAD
Description: cell-based or functional assay.

For assay [2], the target named is T1, heterodimeric multidrug resistance ABC …. The experiment in a line: cell-based or functional assay. The source holds these as a separate data set.
The target in assay [3] is T2, NBD-truncated OmrDE (OmrD^tcE^tc) (Omithinimicrobium cerasi strain USBA17B2).
T2 chain 1: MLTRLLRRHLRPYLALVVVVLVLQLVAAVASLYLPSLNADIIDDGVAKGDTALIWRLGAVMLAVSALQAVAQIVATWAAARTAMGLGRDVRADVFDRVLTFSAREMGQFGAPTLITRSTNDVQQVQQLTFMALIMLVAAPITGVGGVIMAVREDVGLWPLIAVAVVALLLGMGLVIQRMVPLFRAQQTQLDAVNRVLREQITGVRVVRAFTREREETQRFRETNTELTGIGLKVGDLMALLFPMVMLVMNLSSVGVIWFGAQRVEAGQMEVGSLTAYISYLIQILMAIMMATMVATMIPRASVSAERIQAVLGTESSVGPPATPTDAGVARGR
T2 chain 2: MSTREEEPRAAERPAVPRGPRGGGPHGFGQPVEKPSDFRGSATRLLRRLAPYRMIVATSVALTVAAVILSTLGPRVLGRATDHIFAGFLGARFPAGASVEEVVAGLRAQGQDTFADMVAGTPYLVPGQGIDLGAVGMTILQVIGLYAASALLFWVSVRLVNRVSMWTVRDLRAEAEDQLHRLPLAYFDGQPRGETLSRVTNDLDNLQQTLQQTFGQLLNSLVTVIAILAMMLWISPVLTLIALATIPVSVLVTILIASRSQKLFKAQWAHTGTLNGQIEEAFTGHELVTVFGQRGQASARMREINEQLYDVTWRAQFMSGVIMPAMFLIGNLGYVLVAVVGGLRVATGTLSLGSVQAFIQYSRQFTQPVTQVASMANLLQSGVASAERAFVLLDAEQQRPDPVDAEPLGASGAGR
Description: ITC; replicate #1.

In assay [4] the target is T2, NBD-truncated OmrDE (OmrD^tcE^tc). The experiment in a line: ITC; replicate #2. (In general: ITC needs no label: the signal is the heat of the interaction.)
In assay [5] the target is T3, OmrE (OmrE-His) (Omithinimicrobium cerasi strain USBA17B2, UniProt A0A285VWG3 1-661).
T3 chain: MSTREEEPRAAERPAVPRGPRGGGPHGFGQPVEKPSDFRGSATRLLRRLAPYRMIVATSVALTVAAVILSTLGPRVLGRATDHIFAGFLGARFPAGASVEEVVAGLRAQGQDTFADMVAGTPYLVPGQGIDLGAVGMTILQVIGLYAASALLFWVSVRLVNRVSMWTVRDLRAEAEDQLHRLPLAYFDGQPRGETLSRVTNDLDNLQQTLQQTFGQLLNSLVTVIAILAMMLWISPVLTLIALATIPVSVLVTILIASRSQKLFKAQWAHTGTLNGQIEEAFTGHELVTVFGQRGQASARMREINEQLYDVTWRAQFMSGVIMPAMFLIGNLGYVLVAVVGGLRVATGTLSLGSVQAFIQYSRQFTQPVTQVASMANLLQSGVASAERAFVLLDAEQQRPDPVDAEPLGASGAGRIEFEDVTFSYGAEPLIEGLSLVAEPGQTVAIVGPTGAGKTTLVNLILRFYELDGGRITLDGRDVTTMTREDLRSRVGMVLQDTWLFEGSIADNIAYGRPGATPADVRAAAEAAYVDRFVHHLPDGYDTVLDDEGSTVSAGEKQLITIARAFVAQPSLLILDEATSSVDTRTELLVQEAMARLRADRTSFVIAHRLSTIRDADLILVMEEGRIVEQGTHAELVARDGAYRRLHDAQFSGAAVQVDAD
Description: ITC; replicate #2.

Assay [6] deals with T4, heterodimeric multidrug resistance ABC transporter OmrDE (Omithinimicrobium cerasi strain USBA17B2, UniProt A0A285VW85 1-577; A0A285VWG3 1-661).
T4 chain 1: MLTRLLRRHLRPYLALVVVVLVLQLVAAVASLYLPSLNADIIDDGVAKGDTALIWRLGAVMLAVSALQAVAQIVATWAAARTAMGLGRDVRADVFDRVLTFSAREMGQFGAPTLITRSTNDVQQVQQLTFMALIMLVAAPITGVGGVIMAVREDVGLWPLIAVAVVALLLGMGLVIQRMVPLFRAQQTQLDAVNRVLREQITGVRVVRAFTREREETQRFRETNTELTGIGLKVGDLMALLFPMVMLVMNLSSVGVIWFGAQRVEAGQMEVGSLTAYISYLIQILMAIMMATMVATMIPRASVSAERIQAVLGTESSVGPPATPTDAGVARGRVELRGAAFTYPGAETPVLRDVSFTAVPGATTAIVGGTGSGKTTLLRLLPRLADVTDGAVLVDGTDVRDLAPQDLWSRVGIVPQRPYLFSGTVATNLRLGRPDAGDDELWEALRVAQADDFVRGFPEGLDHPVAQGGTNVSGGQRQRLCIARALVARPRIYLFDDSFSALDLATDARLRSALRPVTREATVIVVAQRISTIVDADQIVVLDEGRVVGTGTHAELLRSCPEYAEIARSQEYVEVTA
T4 chain 2: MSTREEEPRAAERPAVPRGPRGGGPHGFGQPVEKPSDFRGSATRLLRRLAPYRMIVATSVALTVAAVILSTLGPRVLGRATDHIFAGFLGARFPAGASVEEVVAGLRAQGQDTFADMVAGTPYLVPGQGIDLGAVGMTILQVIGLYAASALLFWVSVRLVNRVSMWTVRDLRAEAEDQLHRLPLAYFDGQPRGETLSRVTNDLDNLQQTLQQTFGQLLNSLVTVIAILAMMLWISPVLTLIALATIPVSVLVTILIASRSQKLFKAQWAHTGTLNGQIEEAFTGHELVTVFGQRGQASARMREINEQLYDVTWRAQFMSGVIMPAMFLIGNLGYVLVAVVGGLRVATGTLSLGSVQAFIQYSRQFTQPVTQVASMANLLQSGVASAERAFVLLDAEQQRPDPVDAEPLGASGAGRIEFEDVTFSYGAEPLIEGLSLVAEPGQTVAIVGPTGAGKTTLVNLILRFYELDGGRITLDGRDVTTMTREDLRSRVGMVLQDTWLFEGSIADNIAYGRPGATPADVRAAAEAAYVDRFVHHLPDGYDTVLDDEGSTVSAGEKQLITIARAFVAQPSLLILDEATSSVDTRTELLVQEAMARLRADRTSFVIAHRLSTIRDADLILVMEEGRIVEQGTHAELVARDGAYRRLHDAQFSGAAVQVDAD
Description: ITC; replicate #2.

Assay [7] has as its target T2, NBD-truncated OmrDE (OmrD^tcE^tc). The experiment in a line: ITC; replicate #3.
The target of assay [8] is T3, OmrE (OmrE-His). The experiment in a line: ITC; replicate #3.
Assay [9] has as its target T5, NBD-truncated OmrDE (OmrD^tcE^tc) (Omithinimicrobium cerasi strain USBA17B2).
T5 chain 1: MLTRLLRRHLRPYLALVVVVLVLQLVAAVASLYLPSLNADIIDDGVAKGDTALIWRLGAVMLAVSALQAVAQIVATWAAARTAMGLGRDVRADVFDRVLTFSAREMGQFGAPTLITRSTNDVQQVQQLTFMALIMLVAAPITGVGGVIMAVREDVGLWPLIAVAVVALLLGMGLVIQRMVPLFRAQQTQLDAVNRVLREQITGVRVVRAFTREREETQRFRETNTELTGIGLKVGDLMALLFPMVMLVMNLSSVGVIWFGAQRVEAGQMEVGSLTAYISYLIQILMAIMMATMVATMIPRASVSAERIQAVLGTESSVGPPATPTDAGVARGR
T5 chain 2: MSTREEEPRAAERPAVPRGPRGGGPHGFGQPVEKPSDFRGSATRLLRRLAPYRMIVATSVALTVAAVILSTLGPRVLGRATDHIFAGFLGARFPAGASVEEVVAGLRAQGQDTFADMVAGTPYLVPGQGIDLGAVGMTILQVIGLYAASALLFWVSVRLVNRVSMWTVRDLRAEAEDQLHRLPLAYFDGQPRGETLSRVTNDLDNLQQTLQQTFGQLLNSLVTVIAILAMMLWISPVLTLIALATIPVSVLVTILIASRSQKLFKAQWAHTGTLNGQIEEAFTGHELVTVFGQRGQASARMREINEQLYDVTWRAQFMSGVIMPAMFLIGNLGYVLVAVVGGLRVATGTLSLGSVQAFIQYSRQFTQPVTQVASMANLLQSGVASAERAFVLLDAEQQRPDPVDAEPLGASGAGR
The experiment in a line: ITC; OcHeR injected into the Omr protein; 25 °C, 500 rpm; buffer SD; MicroCal ITC200; one site binding model (sequential binding site model for R233Q); perfect saturation was not achieved. As to conditions: both partners purified.

B1: Omithinimicrobium cerasi strain USBA17B2 heliorhodopsin (OcHeR) WT (natural protein, UniProt A0A285W045 1-266, looked up)
chain: MGSTGTGSTASTTRADESRYAGLRRYNVVAAVVHAAQAVAVVVLATDFTLPMTASYLAGPPGSPPGEAVTLWDVPIPLAIATFLALSALFHVIVASPPFFDRYRRGLAQGHNYFRWVEYSLSSSLMIVIIAQLVGISDVVALLGLFGVNASMILFGWLQEKYHQPGDGGWLPFVFGCLAGAVPWVGIVLYTIAPGSTSGAEPPGFVYGIIVSLFLFFNVFALVQWLQYRPVGRFRDYLLGERLYITLSLVAKSALAWQIFGGTLAT
modifications: retinal Schiff base linked to K252
notes: gene codon-optimized for E. coli and chemically synthesized; source: E. coli C43 (DE3), purified (DDM-solubilized membrane fraction, Ni2+-NTA agarose)
For the molecule B1, in assay [1], the “DAPI translocation capacity of OmrDE co-expressed with OcHeR WT in IMVs at 15 min, presence of light against absence of light” value is 3 fold. Besides, in assay [1], the “half-life (t1/2) of the G state (554 nm) of the OcHeR photocycle with OmrDE against OcHeR WT alone” value is 1.6 fold. The “half-life (t1/2) of the O state (618 nm) of the OcHeR photocycle with OmrDE against OcHeR WT alone” value in [1] was 2.2 fold. For the same molecule, in assay [2], the “kcat/Km of ATP hydrolysis of purified OmrDE with OcHeR WT (1:1), absence of light” value was found to be 37.7 M^−1 S^−1. In assay [2], the “kcat/Km of ATP hydrolysis of purified OmrDE with OcHeR WT (1:1), presence of light (532 nm)” value was 58.4 M^−1 S^−1. Also, the dissociation constant Kd in assay [3] came out at 42 µM; in assay [4], 29 µM; with OmrE (OmrE-His) [5] it was 24 µM; in [6], 122 µM; in assay [7], 46 µM; with OmrE (OmrE-His) [8], 46 µM. In [9], this molecule gave a dH of -35.5 kcal/mol.

For orientation: Kd means the concentration at which binding is half-saturated.
